# Changes are numbered by the printed parent chain.
# T1: His/Avi-CynoIL18BP (recombinant cynomolgus IL-18BP with His and Avi tags) (cynomolgus monkey)
# T1 construct: also called cynomolgus IL-18BP-Avi-His
# T1 chain: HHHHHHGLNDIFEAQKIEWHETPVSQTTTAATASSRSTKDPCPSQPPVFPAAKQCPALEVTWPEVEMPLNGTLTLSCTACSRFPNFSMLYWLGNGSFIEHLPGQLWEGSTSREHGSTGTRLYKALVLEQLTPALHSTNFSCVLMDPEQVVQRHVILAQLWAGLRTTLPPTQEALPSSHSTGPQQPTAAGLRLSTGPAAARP
# T2: mouse IL-18BPd-human IgG Fc (R&D Systems, Cat. #122-BP-100) (mouse; human, UniProt Q9Z0M9 29-193)
# T2 construct: Bought; also called mouse IL-18BPd-Fc Chimera
# T2 sequence (looked up): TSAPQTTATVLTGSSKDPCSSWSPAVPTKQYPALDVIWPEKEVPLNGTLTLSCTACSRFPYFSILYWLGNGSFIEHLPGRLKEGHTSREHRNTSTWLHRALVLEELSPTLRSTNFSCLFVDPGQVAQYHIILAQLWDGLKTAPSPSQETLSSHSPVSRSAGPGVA
# T3: Avi/His-HuIL18BPa (recombinant human IL-18BP isoform A with Avi and poly-His tags) (human, biotinylated with BirA on the Avi tag in some assays)
# T3 construct: also called human IL-18BP-Avi-His
# T3 chain: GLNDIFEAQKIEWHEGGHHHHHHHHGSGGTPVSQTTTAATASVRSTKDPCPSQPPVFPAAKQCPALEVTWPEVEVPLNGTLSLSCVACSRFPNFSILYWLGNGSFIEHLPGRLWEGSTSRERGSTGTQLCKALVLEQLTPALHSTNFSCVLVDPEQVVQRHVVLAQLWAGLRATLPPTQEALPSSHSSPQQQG
# T4: Avi/HisMsIL18BPd (recombinant mouse IL-18BP with Avi and poly-His tags) (mouse, biotinylated with BirA on the Avi tag in some assays)
# T4 construct: also called murine IL-18BP; IL-18BP-Avi-His (mouse)
# T4 chain: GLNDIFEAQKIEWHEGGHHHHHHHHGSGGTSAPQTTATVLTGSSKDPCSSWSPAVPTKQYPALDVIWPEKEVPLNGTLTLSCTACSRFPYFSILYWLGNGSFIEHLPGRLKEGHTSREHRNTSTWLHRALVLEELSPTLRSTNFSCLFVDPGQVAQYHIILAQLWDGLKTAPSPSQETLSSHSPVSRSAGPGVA
# T5: Avi/HisMsIL18BPd (recombinant mouse IL-18BP with Avi and poly-His tags) (mouse)
# T5 sequence (chain, biotinylated with BirA on the Avi tag in some assays): T4 chain
# B1: anti-IL18BP antibody BP-11 (antibody, human IgG1, V domains shown)
# VH: QVQLQQSGAELAKPGASVKMSCKASGYTFTNYWMHWVKQRPGQGLEWIGHIDPSTGYTEYNQKFKDKATLTADKSSSTAYMQLSSLTSEDSAVYYCARGLGGLFGYWGQGTLVTVSA
# VL: DIQMTQSPSSLSASLGGKVTITCKASQDINKFIAWYQHKPGKGPRLLIHHTSTLMPGIPSRFSGSGSGREYSFSISNLEPEDIATYYCLQYDNLLWTFGGGTKLEIR
# B2: anti-IL18BP antibody BP-02 (antibody, human IgG1, V domains shown)
# VH: EVQLQQSGPELVKPGASVKIPCKASGYTFTDYNMDWVKQSHGKSLEWIGNINTNNGGTVYNQKFKGKATLTVDKSSSTAYMELRSLTSEDTAVYYCARSDTTVVASRYYAMDYWGQGTSVTVSL
# VL: DIVLTQSPASLAMSLGKRATISCRASESVSIIATNLIHWYQQKPGQPPKLLIYHASNLETGVPARFSGSGSRTDFTLTIDPVEKDDVAIYYCLQSRKIPPTFGGGTKLEIK
# B3: anti-IL18BP antibody BP-05 (antibody, human IgG1, V domains shown)
# VH: B2 VH with G66D, M111L, L124S
# VL: B2 VL with A33G, N35D, K84E
# B4: anti-IL18BP antibody BP-06 (antibody, human IgG1, V domains shown)
# VH: QIQLQQSGPELVKPGASVKISCKASGYTFTDYYLNWVKQTPGQGLEWIGWIYPGSGNTKYTEKFKDKASLTVDTSSNTAYMQLSSLTSDDTAVYFCARRGVAWFAYWGQGTLVTVSA
# VL: DIKMTQSPSSIYASLGERVTITCKASQDINSYLSWFQQKPGKSPKTLIHRANRLVDGVPSRFSGSGSGQDYSLTISSLEYEDMGIYYCLQHDDFPPTFGAGTNLELK
# B5: anti-IL18BP antibody BP-16 (antibody, human IgG1, V domains shown)
# VH: QVQLVQSGAEVKKPGASVKVSCKASGYTFTTYDINWVRQAPGQGLEWMGIIGSYGGATSYAQKFQGRVTMTRDTSTSTVYMELSSLRSEDTAVYYCATAEEELRFDYWGQGTLVTVSS
# VL: DIQMTQSPSSLSASVGDRVTITCRASQSISSYLNWYQQKPGKAPKLLIYKASTLHNGVPSRFSGSGSGTDFTLTISNLQPEDFATYYCQQAISFPLTFGGGTKVEIK
# B6: anti-IL18BP antibody BP-08 (antibody, human IgG1, V domains shown)
# VH: QVQLQQPGAELVKPGASVKLSCKVSGYTFTSYWMHWVKQRPGQGLEWIGMIDPNSDSSRYNEKFKNRATLTADKSSSTAFMQFSSLTSEDSAVYYCARSRLGQDYWGQGTTLTVSS
# VL: DIVMTQSHKFMSTSVGDRVSITCKASQDVSTAVAWYQQKPGQSPKLLIYWASTRHTGVPDRFTGSESGTDYTLIISSVQAEDLALYYCQQHFSTPYTFGGGTKLEIK
# What was measured:
# [1] = biological target: T1, His/Avi-CynoIL18BP (recombinant …); experiment: blocking ELISA, competitor rhesus IL-18
# [2] = biological target: T1, His/Avi-CynoIL18BP (recombinant …); experiment: cell-based or functional assay
# [3] = biological target: T2, mouse IL-18BPd-human IgG Fc (R&D …); experiment: blocking ELISA, competitor mouse IL-18
# [4] = biological target: T3, Avi/His-HuIL18BPa (recombinant human …); experiment: blocking ELISA, competitor human IL-18
# [5] = biological target: T1, His/Avi-CynoIL18BP (recombinant …); experiment: SPR Biacore T200, IgG captured on Protein A/G
# [6] = biological target: T3, Avi/His-HuIL18BPa (recombinant human …); experiment: SPR Biacore T200, IgG captured on Protein A/G
# [7] = biological target: T1, His/Avi-CynoIL18BP (recombinant …); experiment: ELISA, coated IL-18BP
# [8] = biological target: T3, Avi/His-HuIL18BPa (recombinant human …); experiment: ELISA, coated IL-18BP
# [9] = biological target: T4, Avi/HisMsIL18BPd (recombinant mouse …); experiment: ELISA, coated IL-18BP
# [10] = biological target: T3, Avi/His-HuIL18BPa (recombinant human …); experiment: cell-based or functional assay
# [11] = biological target: T4, Avi/HisMsIL18BPd (recombinant mouse …); experiment: cell-based or functional assay
# [12] = biological target: T1, His/Avi-CynoIL18BP (recombinant …); experiment: SPR Carterra LSA, IgG immobilized; WB = weak binding with KD > 1 µM
# [13] = biological target: T3, Avi/His-HuIL18BPa (recombinant human …); experiment: SPR Carterra LSA, IgG immobilized
# [14] = biological target: T4, Avi/HisMsIL18BPd (recombinant mouse …); experiment: SPR, qualitative
# [15] = biological target: T5, Avi/HisMsIL18BPd (recombinant mouse IL-18BP with Avi and poly-His tags) (mouse); experiment: ELISA, coated IL-18BP
# [16] = biological target: T5, Avi/HisMsIL18BPd (recombinant mouse IL-18BP with Avi and poly-His tags) (mouse); experiment: cell-based or functional assay
# [17] = biological target: T1, His/Avi-CynoIL18BP (recombinant …); experiment: SPR Carterra LSA, IgG immobilized
Binder,blocking ELISA signal normalized to isotype control (=1) [1],"% of Max Gamma, human NK cells [2]","EC50 of IFNγ release, human NK cells [2]",blocking ELISA signal normalized to isotype control (=1) [3],blocking ELISA signal normalized to isotype control (=1) [4],Kd [5],Kd [6],ELISA binding ratio (fold-change over background) [7],ELISA binding ratio (fold-change over background) [8],ELISA binding ratio (fold-change over background) [9],"EC50 of IFNγ release, human PBMC [10]","Fold change of IFNγ at 10 µg/ml vs baseline, human PBMC [10]","EC50 of IFNγ release, mouse splenocytes [11]","Fold change of IFNγ at 10 µg/ml vs baseline, mouse splenocytes [11]",Kd [12],Kd [13],binding result [14],ELISA binding ratio (fold-change over background) (fold over background) [15],"Fold change of IFNγ at 10 µg/ml vs baseline, mouse splenocytes [16]",Kd [17]
B1,0.49 ratio to isotype control,100%,37.1 nM,0.14 ratio to isotype control,0.089 ratio to isotype control,1 nM,2.9 nM,47.6 fold over background,44.4 fold over background,43.6 fold over background,4.25 nM,9.72 fold,7 nM,2.75 fold,,,,,,
B2,0.973 ratio to isotype control,10.4%,1.99 nM,0.132 ratio to isotype control,0.167 ratio to isotype control,,,29.7 fold over background,35.1 fold over background,39.2 fold over background,0.75 nM,16.7 fold,4.3 nM,9.34 fold,> 1000 nM,1.6 nM,,,,
B3,0.989 ratio to isotype control,,,0.138 ratio to isotype control,0.191 ratio to isotype control,,,9.7 fold over background,38.3 fold over background,32.1 fold over background,1.33 nM,16.4 fold,2.94 nM,3.15 fold,> 1000 nM,1.67 nM,,,,
B4,0.378 ratio to isotype control,75.8%,8.07 nM,0.971 ratio to isotype control,0.174 ratio to isotype control,,,44.3 fold over background,42.1 fold over background,1.2 fold over background,1.23 nM,10.9 fold,,1.11 fold,,,no binding,,,
B5,,51.6%,8.4 nM,,,11.8 nM,< 0.003 nM,25.1 fold over background,23.6 fold over background,22.1 fold over background,1.66 nM,238 fold,3.08 nM,11.9 fold,,,,,,
B6,0.478 ratio to isotype control,58.4%,19.2 nM,,0.133 ratio to isotype control,,,41.5 fold over background,38.8 fold over background,,2.01 nM,5.19 fold,,,,6.9 nM,,35,0.75 fold,41.4 nM
